Reference: US20220168434A1, “APPLICATION OF TRANSTHYRETIN IN ENTERING EYE AND PREPARING DROP” (YIZHOU (SHANGHAI) BIOLOGICAL MEDICINE CO, LTD., priority 2019, published 2022)

What was measured:
[1] = Protein content in vitreous body during two weeks of eye dropping (ELISA, anti-His tag antibody); type: in vivo, SD rats (Rattus norregicus); conditions: SD rats; protein not fused with TTR
Experimental: (§1) The purified TTR protein (at a concentration of 4 μmol/L) prepared in Example 1 after removal of endotoxin and bacteria was subject to treating healthy SD rats (Rattus norregicus) (6 weeks old) and New Zealand big-eared rabbits (Oryctolagus cuniculus) (2 months old, about 2.5 kg) by means of eye dropping, the left eye was the sample eye dropped with the protein, and the right eye was the blank control eye dropped with saline. The protein was administered 1-3 times per day at a dosage of 0.4-0.8 nmol. Two weeks later, the eyeball was removed and separated to obtain the vitreous body sample. It was preliminarily verified by western-blot method (FIG. 7A) that TTR can enter the vitreous cavity from the ocular surface.
(§2) The purified TTR-GFP protein (at a concentration of 4 μmol/L) prepared in Example 2 after removal of endotoxin and bacteria was subject to treating healthy SD rats (Rattus norregicus) (6 weeks old) and New Zealand big-eared rabbits (Oryctolagus cuniculus) (2 months old, about 2.5 kg) by means of eye dropping, the left eye was the sample eye dropped with the protein, and the right eye was the blank control eye dropped with saline. The protein was administered 1-3 times per day at a dosage of 0.4-0.8 nmol. […] The content of TTR-GFP in the vitreous body sample was determined by ELISA with the anti-His tag antibody as the primary antibody (Table 10 and 11). […]

[2] = as above; type: in vivo, New Zealand big-eared rabbits (Oryctolagus cuniculus); conditions: New Zealand big-ear rabbits; protein not fused with TTR
Experimental: as §1, §2

B1: Ovalbumin: Ovalbumin protein (UniProt Accession No.: P01012) not fused with TTR (protein, UniProt P01012 2-386, looked up)
Ovalbumin: GSIGAASMEFCFDVFKELKVHHANENIFYCPIAIMSALAMVYLGAKDSTRTQINKVVRFDKLPGFGDSIEAQCGTSVNVHSSLRDILNQITKPNDVYSFSLASRLYAEERYPILPEYLQCVKELYRGGLEPINFQTAADQARELINSWVESQTNGIIRNVLQPSSVDSQTAMVLVNAIVFKGLWEKAFKDEDTQAMPFRVTEQESKPVQMMYQIGLFRVASMASEKMKILELPFASGTMSMLVLLPDEVSGLEQLESIINFEKLTEWTSSNVMEERKIKVYLPRMKMEEKYNLTSVLMAMGITDVFSSSANLSGISSAESLKISQAVHAAHAEINEAGREVVGSAEAGVDAASVSEEFRADHPFLFCIKHIATNAVLFFGRCVSP
With B1 as the molecule, how does the “entering the vitreous body after eye dropping (in words)” value [1] read?
Its value is “did not enter”.

What about the “entering the vitreous body after eye dropping (in words)” value [2] of the same molecule?
The value was “did not enter”.
